Measured values published in PMC7949131.

What was measured:
[1] = molecular target: rat HA-NK1R (neurokinin 1 receptor) (rat) (UniProt P14600)
[2] = molecular target: rat HA-NK1R (neurokinin 1 receptor) (rat) (UniProt P14600); remark: listed apart in the source
[3] = molecular target: rat HA-NK1R (neurokinin 1 receptor) (rat) (UniProt P14600); experiment: high-content imaging fluorescent competition binding on cells; HEK-NK1R cells in 96-well plates, increasing concentrations of Span or Span-Chol with 0.5 nM SP-TAMRA, 30 min in total, 37°C; granularity analysis, total cell binding (cell surface and intracellular); competitive binding, one site, fit logIC50
[4] = molecular target: rat HA-NK1R (neurokinin 1 receptor) (rat) (UniProt P14600); experiment: high-content imaging fluorescent competition binding on cells; HEK-NK1R cells in 96-well plates, preincubated with Span or Span-Chol for 3.5 h, then 0.5 nM SP-TAMRA for a further 30 min (4 h in total), 37°C; granularity analysis, total cell binding (cell surface and intracellular); competitive binding, one site, fit logIC50
[5] = molecular target: rat HA-NK1R (neurokinin 1 receptor) (rat) (UniProt P14600); remark: listed apart in the source

UniProt P14600, sequence (P14600 whole entry): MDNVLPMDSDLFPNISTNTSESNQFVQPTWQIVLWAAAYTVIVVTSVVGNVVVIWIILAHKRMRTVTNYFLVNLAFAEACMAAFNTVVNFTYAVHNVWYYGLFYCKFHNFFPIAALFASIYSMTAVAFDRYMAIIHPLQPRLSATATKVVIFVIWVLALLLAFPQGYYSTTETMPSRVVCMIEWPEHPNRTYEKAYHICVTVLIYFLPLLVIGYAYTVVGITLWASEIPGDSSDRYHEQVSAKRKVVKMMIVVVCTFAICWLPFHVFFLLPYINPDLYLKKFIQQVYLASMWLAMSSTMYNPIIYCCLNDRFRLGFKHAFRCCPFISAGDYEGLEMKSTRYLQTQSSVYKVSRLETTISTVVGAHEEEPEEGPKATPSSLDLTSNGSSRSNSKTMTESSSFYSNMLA

## Spantide I conjugated to cholestanol via PEG linker (Span-Chol) (peptide)
[1]
  inhibition of Ca^2+ transients to 1 nM SP in HEK-NK1R cells, pulsed administration (30 min antagonist, wash, 3.5 h; 4 h total) (blocks SP with NK1R); pIC50: 6.15
[2]
  inhibition of Ca^2+ transients to 1 nM SP in HEK-NK1R cells, continuous 4 h incubation with antagonist (blocks SP with NK1R); pIC50: 6.36
[3]
  pIC50: 6.28
[4]
  pIC50: 6.5
[5]
  inhibition of Ca^2+ transients to 1 nM SP in HEK-NK1R cells, 30 min preincubation with antagonist (blocks SP with NK1R); pIC50: 6.25

## Spantide I (peptide)
[2]
  inhibition of Ca^2+ transients to 1 nM SP in HEK-NK1R cells, continuous 4 h incubation with antagonist (blocks SP with NK1R); pIC50: 5.11
[3]
  pIC50: 5.99
[4]
  pIC50: 5.55
[5]
  inhibition of Ca^2+ transients to 1 nM SP in HEK-NK1R cells, 30 min preincubation with antagonist (blocks SP with NK1R); pIC50: 4.87
